Paper PMC8951179

Tests used:
[1] = molecular target: GST-Ku70_1–250_Q65A/Q68A (human) (UniProt P12956); experiment: pull-down; GST pull-down: 100 nM GST-Ku70 variant as bait on glutathione-agarose, 100 or 200 nM His6-IN; buffer A (20 mM Hepes pH 7.5, 100 mM NaCl, 7.5 mM MgCl2, 2 mM 2-mercaptoethanol, 50 µg/mL BSA, 0.1% NP40), room temperature; Western blot
[2] = molecular target: GST-Ku70_1–250_S69A (human) (UniProt P12956); experiment: as above

Q: With “HIV-1 integrase carrying N-terminal His6-tag (natural protein)” as the substance, how does the reduction in the protein binding efficiency (control Ku70 1–250) [1] read?
A: 10 to 15%

Q: What about the IN binding activity, % of the wild-type protein [2] of the same substance?
A: 55 to 73%
